# Test results taken from US20240182563A1 (GENOME, published 2024).
# T1: Human CNTN-4 protein (human, UniProt Q8IWV2 19-1000, limits assumed)
# T1 construct: soluble antigen run over the captured antibody; also called human CNTN4 (SPR analyte)
# T1 sequence (looked up): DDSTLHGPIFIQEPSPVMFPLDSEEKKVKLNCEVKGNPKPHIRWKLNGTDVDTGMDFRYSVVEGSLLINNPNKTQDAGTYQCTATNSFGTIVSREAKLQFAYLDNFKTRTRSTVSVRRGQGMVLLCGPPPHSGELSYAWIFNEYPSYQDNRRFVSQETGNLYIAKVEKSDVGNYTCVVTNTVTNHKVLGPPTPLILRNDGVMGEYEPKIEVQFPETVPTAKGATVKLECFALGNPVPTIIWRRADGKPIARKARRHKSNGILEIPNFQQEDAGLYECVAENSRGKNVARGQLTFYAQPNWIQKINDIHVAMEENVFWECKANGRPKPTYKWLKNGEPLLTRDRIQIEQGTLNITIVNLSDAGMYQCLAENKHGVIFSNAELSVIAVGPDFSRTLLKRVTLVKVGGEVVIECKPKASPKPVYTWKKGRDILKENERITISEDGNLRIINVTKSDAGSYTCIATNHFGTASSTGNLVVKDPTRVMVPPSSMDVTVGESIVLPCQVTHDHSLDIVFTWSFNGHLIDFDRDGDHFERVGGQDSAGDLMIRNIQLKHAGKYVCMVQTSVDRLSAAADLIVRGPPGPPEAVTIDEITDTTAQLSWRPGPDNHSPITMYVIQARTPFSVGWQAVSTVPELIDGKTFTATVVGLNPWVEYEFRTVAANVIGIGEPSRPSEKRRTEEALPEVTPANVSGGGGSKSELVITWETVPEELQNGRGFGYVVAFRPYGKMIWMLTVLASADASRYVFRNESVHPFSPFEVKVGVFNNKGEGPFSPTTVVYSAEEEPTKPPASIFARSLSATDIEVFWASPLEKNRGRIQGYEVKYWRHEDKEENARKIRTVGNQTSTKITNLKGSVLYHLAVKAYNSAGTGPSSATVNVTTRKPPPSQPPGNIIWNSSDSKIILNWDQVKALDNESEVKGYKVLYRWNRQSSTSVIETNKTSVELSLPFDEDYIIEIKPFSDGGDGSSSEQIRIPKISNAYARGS
# B1: anti-CNTN4 129 chimeric IgG4-S228P (antibody, V domains shown)
# VH: AVTLDESEGGLQTPGGALSLVCKASGFTFSSFNMFWVRQAPGKGLEYVAEISGGGGSTWYAPAVKGRATISRDNGQSTVRLQLNNLRAEDTGTYYCAKSADTWSYGAATIDAWGHGTEVIVSS
# VL: ALTQPSSVSANLGETVKITCSGSSGSYGWYQQKSPGSAPVTLIYDNTNRPSDIPSRFSGSGSGSTGTLTITGVRAEDEAVYYCGGYDGSTDVFGAGTTLTVL
# notes: chicken-human chimeric IgG4-S228P made from S129, kappa light chain constant region (Kappa select); also called A-01; LAHA
# Molecular target: T1, Human CNTN-4 protein
# Assay: SPR, antibody captured by anti-human IgG Fc on CM5 chip, CNTN4 as analyte
# Protocol: Specifically, in order to bind anti-human IgG Fc (capture antibody) using amine coupling, CM5 chip was mounted, running buffer was allowed to flow, the chip was activated, and then capture antibody was attached thereto. Dextrin to which capture antibody was not attached was deactivated using ethanolamine, and then regeneration was performed using 3M magnesium chloride to clear analyte except capture antibody. The A-01 prepared at a concentration of 0.05 μg/mL was allowed to flow for 30 seconds at a rate of 10 μL/min for binding. Thereafter, human CNTN4 (400 nM to 0.78 nM) prepared by sequential dilution as an antigen was allowed to flow at a rate of 30 μL/min for 3 minutes to be bound, and dissociation was performed for 5 minutes. Then, in order to clear all analytes attached to the capture antibody, a regeneration solution (3M magnesium chloride) was allowed to flow at a rate of 20 μL/min for 30 seconds, and regeneration was performed. For each concentration of antigen, binding of A-01, binding of antigen, dissociation, and regeneration were repeated in order.
binder,measurement,value
B1,Kd,33.6 nM
